Assay results from PMC9060471 (2022).

Target: 6xHis-TLX ligand-binding domain (UniProt Q9Y466 155-385)
Sequence (Q9Y466 155-385): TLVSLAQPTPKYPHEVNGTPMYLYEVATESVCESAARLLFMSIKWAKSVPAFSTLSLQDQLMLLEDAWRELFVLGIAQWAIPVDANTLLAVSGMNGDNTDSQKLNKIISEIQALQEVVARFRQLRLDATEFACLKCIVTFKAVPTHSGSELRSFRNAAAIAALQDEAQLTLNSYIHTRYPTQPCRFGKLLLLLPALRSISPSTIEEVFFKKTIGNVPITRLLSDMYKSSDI

LTERHKILHRLLQEGSPSD [NCOA1-II peptide (competitor in the ALPHA competition experiment)] showed an EC50 of 3.3 µM.
